One may read the stoichiometry N as the number of molecules, sites or subunits per partner or assembly.

The assay deals with Orange Carotenoid Protein variant OCP-W288_BTA (Synechocystis sp. PCC 6803 OCP with Trp288 replaced by 3-benzothienyl-L-alanine) (Synechocystis sp. PCC 6803) (UniProt P74102). The experiment in a line: SEC; preparative SEC, Superdex 200 Increase 10/300, after IMAC and HIC; pink, earlier eluting fraction OCP-W288_BTA(P). On the technique in general: Size exclusion chromatography separates by hydrodynamic size, large species first.

Turning to “Orange Carotenoid Protein variant OCP-W288_BTA (Synechocystis sp. PCC 6803 OCP with Trp288 replaced by 3-benzothienyl-L-alanine) (from UniProt P74102 1-317) (natural protein)”, the stoichiometry N is 2.

Source of the values: publication PMC9909426.
